This assay has as its target T1, flag-tagged p115 head domain (1-655) (human, UniProt O60763 1-655).
T1 sequence (looked up): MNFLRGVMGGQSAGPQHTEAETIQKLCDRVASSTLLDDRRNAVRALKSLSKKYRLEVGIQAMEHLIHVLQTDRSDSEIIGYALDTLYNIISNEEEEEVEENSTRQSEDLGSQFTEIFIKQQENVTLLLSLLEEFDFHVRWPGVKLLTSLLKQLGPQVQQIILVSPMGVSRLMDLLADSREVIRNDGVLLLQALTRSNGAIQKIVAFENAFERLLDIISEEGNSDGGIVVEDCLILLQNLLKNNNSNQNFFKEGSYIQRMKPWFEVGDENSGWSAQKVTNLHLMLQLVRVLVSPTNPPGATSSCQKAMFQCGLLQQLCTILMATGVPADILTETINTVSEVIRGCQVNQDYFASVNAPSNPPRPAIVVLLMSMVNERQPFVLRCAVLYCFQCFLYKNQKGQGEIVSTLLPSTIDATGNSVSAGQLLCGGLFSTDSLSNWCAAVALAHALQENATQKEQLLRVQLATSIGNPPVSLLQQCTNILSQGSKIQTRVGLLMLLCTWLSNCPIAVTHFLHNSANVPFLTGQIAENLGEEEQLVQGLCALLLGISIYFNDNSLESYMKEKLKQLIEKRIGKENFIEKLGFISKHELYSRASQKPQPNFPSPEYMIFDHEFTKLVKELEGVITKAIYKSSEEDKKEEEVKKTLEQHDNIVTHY
Briefly: pull-down.

B1: Sec16A(650-776)-GFP (domain or fragment, human, UniProt O15027 650-776, looked up)
chain: ALPDASPGNLEQPPDNMETLCAPQVCPLPLNSTTEAVHMLPHAGAPPLDTVYPAPEKRPSARTQGPVKCESPATTLWAQSELPDFGGNVLLAPAAPALYVCAKPQPPVVQPPEEAMSGQQSRNPSSA
On to B1, for which the binding result is reported as “binds”.
